Target: PrP^Sc, pathogenic form of the human prion protein (from CJD brain homogenate) (human) (UniProt P04156)

Substance: 3F4 antibody
- ave (RLU), vCJD BH: 56.3 RLU
